Laboratory results as given in patent US20140287471A1, “VARIANT CBH I POLYPEPTIDES WITH REDUCED PRODUCT INHIBITION” (BP CORPORATION NORTN AMERICA INC., priority 2011, published 2014).

What was measured:
[1] = 4-MUL cellobiose tolerance/inhibition assay, dose-response IC50 (Example 2); assay type: biochemical; details: primary screening, n=1; for Tolerance at 1 mM CB (MUL Data): 1 mM cellobiose; for IC50: 10 μL enzyme, cellobiose range 0.0001-100 mM, read-out: IC50 (MUL Data)
Procedure: (§1) CBH I activity on was measured using the 4-MUL assay using gluconolactone to inhibit any BG activity. The fluorogenic 4-MUL substrate (SIGMA) was prepared at 100 mM concentration in DMSO. Assays were run in black 96-well-flat-bottomed plates (Costar) and 4-MU fluorescence was read on a BioTek H4 plate reader (ex/em 365/450 nm). Assay plates were filled with buffer (final concentrations of 100 mM MES, pH 6, 25 mM gluconolactone, with or without cellobiose; cellobiose concentrations are listed with appropriate data sets), to which enzyme mixture was added (10-30 μl, 5 μg/mL final) and then assays were initiated by addition of 4-MUL (0.5 mM final concentration in 100 μl total volume). Enzyme mixtures were either CBH I variants from harvested supernatants or standards. Standards included: a negative control, consisting of harvested supernatant from the CBH I knock-out strain; a positive control, consisting of wild-type CBH I from harvested supernatants; and, a commercial CBH I standard (E-CBHI from Megazymes). Activity standards were run by serial dilution of commercial CBH I from 40 to 0.02 μg/mL and 4-MU (SIGMA, prepared at 20 mM in DMSO) (in dilution increments of 2-fold; all dilutions were made using harvested supernatant from the knock-out control). Kinetic rates were monitored over the first 15 mins following 4-MUL addition; initial rates were calculated based on data in the linear range. After 1 hr, a final endpoint read was taken, both before and after reaction quenching (100 μL of 200 mM Sodium Carbonate, pH 10.0). Activity was calculated for kinetic and endpoint reads; background resulting from the CBH I knock-out supernatant remained negligible. 4MU standard curves and HPLC quantification values were used to calculate specific activity.
Tolerance/inhibition values represent activity ratios and/or percent activity remaining/percent activity decreased in the presence versus the absence of cellobiose. Tolerant variants show less inhibition in the presence of cellobiose as compared to wild type, where an activity ratio of 1 (with vs. without a given concentration of cellobiose) is equivalent to 0% inhibition by cellobiose, or 100% tolerance. The effect of cellobiose on CBH I variant performance was monitored by dose-response in the 4MUL assay. Dose-response curves were generated by assaying variant activity in the presence of 6-8 different cellobiose concentrations ranging up to 100 mM cellobiose. CBH I samples were diluted to 5 μg/mL final concentration or were used directly in the case of protein quantification levels below 5 μg/mL. Half maximal inhibitory concentration (IC50) values were determined by plotting 4MUL activity versus cellobiose concentration and fitting with a four parameter dose-response fitting algorithm, with zero activity (or 100% inhibition) constrained to background activity (as established by CBH I knockout values) and with automatic outlier elimination (on GraphPad Prism 5).
Harvested supernatants from active variant isolates were evaluated for cellobiose tolerance at 1 mM cellobiose in the 4-MUL activity assay. Table 8 lists the tolerance of variants at 1 mM. […] Additional cellobiose concentrations at 0.25, 5, 10, 50, and 100 mM were tested leading to full dose-response curves for which half maximal inhibitory concentration (IC50) values were generated (Table 8). The IC50 values support that the variant library has decreased product inhibition, or increased tolerance to cellobiose, when compared to the wild-type enzyme (WT IC50=0.03 mM; see first entry, Table 8).
In one example, the cellobiose tolerance of the library was explored in more detail by generating dose-response curves and determining half maximal inhibitory concentration (IC50) values, the point at which the enzyme is 50% inhibited.

[2] = 4-MUL assay, specific activity (Example 2); assay type: biochemical; details: primary screening; 10 μL enzyme; n=1
Procedure: as §1
The specific activity (SA) of the variant library was evaluated in a secondary 4-MUL assay. […] On average, a mutation at position 268 increases the specific activity by 2.5 fold over that of wild type. A mutation at 268 in combination with 411 is around 1.5-1.6 fold higher than wild-type, on average.

Molecule	Tolerance at 1 mM CB (MUL Data) [1] [%]	IC50 [1] [mM]	SA (μmol 4 MU/min/mg) (MUL Data) [2]
268_+411A Trp (protein, UniProt P62694 18-513, looked up, variant R268W R411A) Exoglucanase 1: QSACTLQSETHPPLTWQKCSSGGTCTQQTGSVVIDANWRWTHATNSSTNCYDGNTWSSTLCPDNETCAKNCCLDGAAYASTYGVTTSGNSLSIGFVTQSAQKNVGARLYLMASDTTYQEFTLLGNEFSFDVDVSQLPCGLNGALYFVSMDADGGVSKYPTNTAGAKYGTGYCDSQCPRDLKFINGQANVEGWEPSSNNANTGIGGHGSCCSEMDIWEANSISEALTPHPCTTVGQEICEGDGCGGTYSDNWYGGTCDPDGCDWNPYRLGNTSFYGPGSSFTLDTTKKLTVVTQFETSGAINRYYVQNGVTFQQPNAELGSYSGNELNDDYCTAEEAEFGGSSFSDKGGLTQFKKATSGGMVLVMSLWDDYYANMLWLDSTYPTNETSSTPGAVAGSCSTSSGVPAQVESQSPNAKVTFSNIKFGPIGSTGNPSGGNPPGGNRGTTTTRRPATTTGSSPGPTQSHYGQCGGIGYSGPTVCASGTTCQVLNPYYSQCL	84	7.01	0.81
268A+411— Val (protein, UniProt P62694 18-513, looked up, variant R268A R411V) Exoglucanase 1: QSACTLQSETHPPLTWQKCSSGGTCTQQTGSVVIDANWRWTHATNSSTNCYDGNTWSSTLCPDNETCAKNCCLDGAAYASTYGVTTSGNSLSIGFVTQSAQKNVGARLYLMASDTTYQEFTLLGNEFSFDVDVSQLPCGLNGALYFVSMDADGGVSKYPTNTAGAKYGTGYCDSQCPRDLKFINGQANVEGWEPSSNNANTGIGGHGSCCSEMDIWEANSISEALTPHPCTTVGQEICEGDGCGGTYSDNAYGGTCDPDGCDWNPYRLGNTSFYGPGSSFTLDTTKKLTVVTQFETSGAINRYYVQNGVTFQQPNAELGSYSGNELNDDYCTAEEAEFGGSSFSDKGGLTQFKKATSGGMVLVMSLWDDYYANMLWLDSTYPTNETSSTPGAVVGSCSTSSGVPAQVESQSPNAKVTFSNIKFGPIGSTGNPSGGNPPGGNRGTTTTRRPATTTGSSPGPTQSHYGQCGGIGYSGPTVCASGTTCQVLNPYYSQCL	102	15.1	1.39
268_+411A Pro (protein, UniProt P62694 18-513, looked up, variant R268P R411A) Exoglucanase 1: QSACTLQSETHPPLTWQKCSSGGTCTQQTGSVVIDANWRWTHATNSSTNCYDGNTWSSTLCPDNETCAKNCCLDGAAYASTYGVTTSGNSLSIGFVTQSAQKNVGARLYLMASDTTYQEFTLLGNEFSFDVDVSQLPCGLNGALYFVSMDADGGVSKYPTNTAGAKYGTGYCDSQCPRDLKFINGQANVEGWEPSSNNANTGIGGHGSCCSEMDIWEANSISEALTPHPCTTVGQEICEGDGCGGTYSDNPYGGTCDPDGCDWNPYRLGNTSFYGPGSSFTLDTTKKLTVVTQFETSGAINRYYVQNGVTFQQPNAELGSYSGNELNDDYCTAEEAEFGGSSFSDKGGLTQFKKATSGGMVLVMSLWDDYYANMLWLDSTYPTNETSSTPGAVAGSCSTSSGVPAQVESQSPNAKVTFSNIKFGPIGSTGNPSGGNPPGGNRGTTTTRRPATTTGSSPGPTQSHYGQCGGIGYSGPTVCASGTTCQVLNPYYSQCL	80	7.31	1.80
268A+411— Ile (protein, UniProt P62694 18-513, looked up, variant R268A R411I) Exoglucanase 1: QSACTLQSETHPPLTWQKCSSGGTCTQQTGSVVIDANWRWTHATNSSTNCYDGNTWSSTLCPDNETCAKNCCLDGAAYASTYGVTTSGNSLSIGFVTQSAQKNVGARLYLMASDTTYQEFTLLGNEFSFDVDVSQLPCGLNGALYFVSMDADGGVSKYPTNTAGAKYGTGYCDSQCPRDLKFINGQANVEGWEPSSNNANTGIGGHGSCCSEMDIWEANSISEALTPHPCTTVGQEICEGDGCGGTYSDNAYGGTCDPDGCDWNPYRLGNTSFYGPGSSFTLDTTKKLTVVTQFETSGAINRYYVQNGVTFQQPNAELGSYSGNELNDDYCTAEEAEFGGSSFSDKGGLTQFKKATSGGMVLVMSLWDDYYANMLWLDSTYPTNETSSTPGAVIGSCSTSSGVPAQVESQSPNAKVTFSNIKFGPIGSTGNPSGGNPPGGNRGTTTTRRPATTTGSSPGPTQSHYGQCGGIGYSGPTVCASGTTCQVLNPYYSQCL	107	28	0.58
268A+411— Ala (protein, UniProt P62694 18-513, looked up, variant R268A R411A) Exoglucanase 1: QSACTLQSETHPPLTWQKCSSGGTCTQQTGSVVIDANWRWTHATNSSTNCYDGNTWSSTLCPDNETCAKNCCLDGAAYASTYGVTTSGNSLSIGFVTQSAQKNVGARLYLMASDTTYQEFTLLGNEFSFDVDVSQLPCGLNGALYFVSMDADGGVSKYPTNTAGAKYGTGYCDSQCPRDLKFINGQANVEGWEPSSNNANTGIGGHGSCCSEMDIWEANSISEALTPHPCTTVGQEICEGDGCGGTYSDNAYGGTCDPDGCDWNPYRLGNTSFYGPGSSFTLDTTKKLTVVTQFETSGAINRYYVQNGVTFQQPNAELGSYSGNELNDDYCTAEEAEFGGSSFSDKGGLTQFKKATSGGMVLVMSLWDDYYANMLWLDSTYPTNETSSTPGAVAGSCSTSSGVPAQVESQSPNAKVTFSNIKFGPIGSTGNPSGGNPPGGNRGTTTTRRPATTTGSSPGPTQSHYGQCGGIGYSGPTVCASGTTCQVLNPYYSQCL	83	5.56	1.19
268A+411— Leu (protein, UniProt P62694 18-513, looked up, variant R268A R411L) Exoglucanase 1: QSACTLQSETHPPLTWQKCSSGGTCTQQTGSVVIDANWRWTHATNSSTNCYDGNTWSSTLCPDNETCAKNCCLDGAAYASTYGVTTSGNSLSIGFVTQSAQKNVGARLYLMASDTTYQEFTLLGNEFSFDVDVSQLPCGLNGALYFVSMDADGGVSKYPTNTAGAKYGTGYCDSQCPRDLKFINGQANVEGWEPSSNNANTGIGGHGSCCSEMDIWEANSISEALTPHPCTTVGQEICEGDGCGGTYSDNAYGGTCDPDGCDWNPYRLGNTSFYGPGSSFTLDTTKKLTVVTQFETSGAINRYYVQNGVTFQQPNAELGSYSGNELNDDYCTAEEAEFGGSSFSDKGGLTQFKKATSGGMVLVMSLWDDYYANMLWLDSTYPTNETSSTPGAVLGSCSTSSGVPAQVESQSPNAKVTFSNIKFGPIGSTGNPSGGNPPGGNRGTTTTRRPATTTGSSPGPTQSHYGQCGGIGYSGPTVCASGTTCQVLNPYYSQCL	99	25.1	1.72
268_+411A Arg (protein, UniProt P62694 18-513, looked up, variant R411A) Exoglucanase 1: QSACTLQSETHPPLTWQKCSSGGTCTQQTGSVVIDANWRWTHATNSSTNCYDGNTWSSTLCPDNETCAKNCCLDGAAYASTYGVTTSGNSLSIGFVTQSAQKNVGARLYLMASDTTYQEFTLLGNEFSFDVDVSQLPCGLNGALYFVSMDADGGVSKYPTNTAGAKYGTGYCDSQCPRDLKFINGQANVEGWEPSSNNANTGIGGHGSCCSEMDIWEANSISEALTPHPCTTVGQEICEGDGCGGTYSDNRYGGTCDPDGCDWNPYRLGNTSFYGPGSSFTLDTTKKLTVVTQFETSGAINRYYVQNGVTFQQPNAELGSYSGNELNDDYCTAEEAEFGGSSFSDKGGLTQFKKATSGGMVLVMSLWDDYYANMLWLDSTYPTNETSSTPGAVAGSCSTSSGVPAQVESQSPNAKVTFSNIKFGPIGSTGNPSGGNPPGGNRGTTTTRRPATTTGSSPGPTQSHYGQCGGIGYSGPTVCASGTTCQVLNPYYSQCL	72	1.6	0.38
